Results: US20210008175A1, “BACTERIOPHAGE LYSIN AND ANTIBIOTIC COMBINATIONS AGAINST GRAM POSITIVE BACTERIA” (priority 2012, published 2021)

What was measured:
Enterococcus faecalis = assay: MIC, broth microdilution (CLSI M07-A9); assay type: cell-based; settings: 17 tested
[1] = tested on: Staphylococcus aureus (MRSA and MSSA strains); assay: Synergy time-kill assay (6 hours, combination compared to most active single agent); assay type: cell-based; settings: ½ MIC PlySs2 or ¼ MIC vancomycin alone, up to 6 hours
[2] = tested on: MRSA strain MW2 and MSSA strain ATCC 29213; assay: MIC in the presence of surfactant (Survanta), broth microdilution; assay type: cell-based, Staphylococcus aureus; settings: range from 1.25 to 15% surfactant
S. aureus = assay: Murine bacteremia model, survival; assay type: in vivo, BALB/c mice; settings: for 24 hour survival rate / 72 hour survival rate: high challenge (10^9 CFU MRSA MW2), dosing at 2 hours
[3] = daptomycin 50 mg/kg once daily, PlySs2 5.25 mg/kg (FIG. 27B)
[4] = vancomycin 110 mg/kg twice daily, PlySs2 5.25 mg/kg (FIG. 27E)

B1: PlySs2: bacteriophage lysin derived from Streptococcus suis, amino acid sequence of FIG. 29 (SEQ ID NO: 1), N-terminal CHAP and C-terminal SH3 domain (protein, listed as Streptococcus suis)
chain: MTTVNEALNNVRAQVGSGVSVGNGECYALASWYERMISPDATVGLGAGVGWVSGAIGDTISAKNIGSSYNWQANGWTVSTSGPFKAGQIVTLGATPGNPYGHVVIVEAVDGDRLTILEQNYGGKRYPVRNYYSAASYRQQVVHYITPPGTVAQSAPNLAGSRSYRETGTMTVTVDALNVRRAPNTSGEIVAVYKRGESFDYDTVIIDVNGYVWVSYIGGSGKRNYVATGATKDGKRFGNAWGTFK
MIC 50% (Enterococcus faecalis): >512 µg/mL | MIC 90% (Enterococcus faecalis): >512 µg/mL | effectiveness alone at sub-MIC doses [1]: ineffective or poorly effective | inhibition of MIC by surfactant [2]: 8 fold | protection (S. aureus; 5 mg/kg dose): significant protection | dose giving survival enhancement over mock-injected control (S. aureus; dose-response, as little as): 0.25 mg/kg | 24 hour survival rate (S. aureus; [3]): 56% | 72 hour survival rate (S. aureus; [3]): 18% | 24 hour survival rate (S. aureus; [4]): 60% | 72 hour survival rate (S. aureus; [4]): 3% | survival at 72 hours (S. aureus; low challenge model (up to 7×10^6 CFU MRSA MW2), single dose at 4 hours, PlySs2 1.25 mg/kg, daptomycin 2 mg/kg): 13%
